Laboratory results published in patent US20210292393A1 (published 2021).

Experiments:
[1] = molecular target: SARS-CoV-2 full length spike protein (wild type) (SARS-CoV-2, UniProt P0DTC2 14-1273)
[2] = molecular target: SARS-CoV-2 full length spike protein, wild type, expressed on the surface of CHO cells (SARS-CoV-2, UniProt P0DTC2 14-1273)

| Binder | median fluorescence intensity, fold over isotype control [1] [fold over isotype] | median fluorescence fold over isotype control [2] [fold over isotype] |
| --- | --- | --- |
| antibody 263 (antibody, V domains shown) VH: EVQLVQSGAEVKKPGATVKISCKVSGYTFTDYYMHWVQQAPGKGLEWMGLVDPEDGETIYAEKFQGRVTITADTSTDTAYMELSSLRSDDTAVYYCTTDLAFTIFGGRRGFDPWGQGTLVTVSS VL: DIQLTQSPSFLSASVGDRVTITCRASQGISSYLAWYQQKPGKAPKLLIYAASTLQSGVPSRFSGSGSGTEFTLTISSLQPEDFATYYCQQLNSYDFGQGTRLEIK | 22.5 |  |
| antibody 546 (antibody, V domains shown) VH: QVQLVESGGGVVQPGRSLRLSCAASGFTFSSYGMHWVRQAPGKGLEWVAVIWYDGSNKYYADSVKGRFTISRDNSKNTLYLQMNSLRAEDTAVYYCARNCGGDCVAGDGFDYWGQGTLVTVSS VL: DIQMTQSPSSLSASVGDRVTITCRASQSISSYLNWYQQKPGKAPNLLIYAASSLQSGVPSRFSGSGSGTDFTLTISSLQPEDFATYYCQQSYSALTWTFGQGTKVEIK |  | 19.3 |
| antibody 510 (antibody, V domains shown) VH: QVQLQESGPGLVKPSQTLSLTCTVSGGSISSGSYYWSWIRQPAGKGLEWIGRIYTSGSTNYNPSLKSRVTISVDTSKNQFSLKLSSVTAADTAVYYCAREGQWLYRFDYWGQGTLVTVSS VL: QSALTQPASVSGSPGQSITISCTGTSSDVGNYDLVSWYQQHPGKAPKLVIYGVTKRPSGVSNRFSGSKSGNTASLTISGLQAEDEADYYCCSYATGDTSVFGTGTKVTVL |  | 1.18 |
| antibody 523 (antibody, V domains shown) VH: EVQLVESGGVSVQPGGSLRLSCAASGFSFNTYDMHWVRQGTGKGLEWVSGIGTAGDTYYSDSVKGRCTISRDNAKNSLHLLVKSVRAADTAVYYCARGVGGIIDYWGQGTLVTVSS VL: NFVLSQPHSVSESPGKTVTISCTGNSGSIATKYVQWFQQRPGSAPTTVIYEDNQRPSGVPDRFSGSSDSSSNSASLTISGLKTEDEAHYYCQSYHNRRWVFGGGTKLTVL |  | 5.18 |
| antibody 265 (antibody, V domains shown) VH: EVQLVQSGAEVKKPGATVKVSCKFSGDTFSHYYIHWVQQAPGKGLEWMGLVDPQDGESEYAQKFQGKVTITADTSIDTSYLEVTSLRFDDTAFYFCATRGMSGAFDRWGQGTLVTVSS VL: DIVMTQSPDSLAVSLGERATINCKSSQSILSTSNNKNYLAWYQQKPGQPPKLLIYWASTRESGVPDRFSGGGSGTDFTLTISSLQAEDVAVYYCQQYYRTAYTTPIYTFGQGTKLEIK | 21.4 |  |
| antibody 514 (antibody, V domains shown) VH: EVQLVQSGAEVKKPGATVKISCKVSGYTFTDYYMHWVQQAPGKGLEWMGLVDPEDGETIYAEKFQGRVTITADTSTDTAYMELSSLRSEDTAVYYCATDCKYDILTGHYSAGYYYYGMDVWGQGTTVTVSS VL: DIQMTQSPSSLSASVGDRVTITCRASQGISNYLAWFQQKPGKAPKSLIYAASSLQSGVPSKFSGSGSGTDFTLTISSLQPEDFATYYCQQYNSYPFTFGGGTKVEIK |  | 1.04 |
| antibody 533 (antibody, V domains shown) VH: GVQLVESGGVVVQPGGSLRLSCAASGFSFDDYTMHWVRQAPGKGLEWVSLVSWDGGTTYYTDSVKGRFTISRDNSKNSLYLQMNSLRTEDTALYFCAKDSGRIVPAATFDYWGQGTLVTVSS VL: DIQMTQSSSSLSASVGDRVTITCRASQDISNYLAWFQQKPGKAPKSLIYAASSLQSGVPSKFSGSGSGTDFTLTISSLQPEDFATYYCQQYYTYPLTFGGGTKVEIK |  | 4.31 |
| antibody 541 (antibody, V domains shown) VH: QVQLVQSGAEVKKPGASVKVSCKASGYTFTSYYVHWVRQAPGQSLEWMGVISPSTGSTTYAQNFQGRVTMTRDTSTTTVYMELSSLRSEDTAVYYCARDDYYDSTRYFDLWGRGTLVTVSS VL: not shown |  | 1.1 |
| antibody 276 (antibody, V domains shown) VH: QVQLQESGPGLVKPSQTLSLTCTVSGDSISSGGYYWSWIRQHPGKGLEWIGYIYYSGSAYYNPSLKSRVTISLDTSKNQFSLKLSSVTAADTAVYYCARDSVAGFSIFDYWGQGTLVTVSS VL: SSELTQDPAVSVALGQTVRITCQGDSLRSYYASWYQQKPGQAPVRVIYGKNNRPSGIPDRFSGSSSGNTASLTITGAQAEDEADYYCNSWDSSGNHVVFGGGTKLTVL | 9.24 |  |
| antibody 264 (antibody, V domains shown) VH: QVHLVESGGGVVQPGRSLRLSCAASGFTLTSYAMHWVRQAPGKGLEWVALISYDGSVKKYAESVKGRITVSGDNSRNTLHLQINTLRADDTAVYYCVRGGVSGPNSFDLWGQGTMVTVSS VL: DVVMTQSPLSLPVTLGQPASISCRSSQSLEYSDGNTYVNWFQQRPGQSPRRLIYQVSNRASGVPDRFSGSGSGTDFTLQISRVEAEDVGIYYCMQGTHWPVTFGQGTKVEIK | 10.3 |  |
| antibody 316 (antibody, V domains shown) VH: QVHLVESGGGVVQPGRSLRLSCAASGFTLTAYAMHWVRQAPGKRLEWVALISYDGSVKKYADSVKGRITVSGDTSTNTLHLQMNSLRADDTAVYYCVRGGVSGPNSFDLWGQGTMVTVSS VL: DVVMTQSPLSLPVTLGQPASMSCRSSQSLEYSDGNTYVNWFHQRPGQSPRRLIYKVSYRDSGVPDRFSGSGSGTDFTLQISRVEAEDVGIYYCMQGTHWPVTFGQGTKVEIK | 10.7 |  |
| antibody 517 (antibody, V domains shown) VH: QVQLVESGGGVVQPGRSLRLSCAASGFNLSNYAMHWVRQASGKGLEWVSLISYDGSIKYYTDSVKGRFTVSGDNSKNTLFLQMNSLRADDSALYYCVRGGVSGPNSFDMWGQGTTVTVSS VL: DVVMTQSPLSLPVTLGQPASISCRSSQSLVYSDGNTYVNWFQQRPGQSPRRLIYQVSIRASGVPDRFSGSGSGTDFALKISRVEAEDVGVYYCMQGTHWPVTFGQGTKVEIK |  | 10.3 |
| antibody 266 (antibody, V domains shown) VH: QVQLVESGGGVVQPGRSLRLSCAASGFNLSNYAMHWVRQPSGKGLEWVSLISYDGSIKYYTDSVKGRFTVSGDNSKNTLFLQMNSLRPDDSALYYCVRGGVSGPNSFDMWGQGTTVTVSS VL: DVVMTQSPLSLPVTLGQPASISCRSSQSLVYSDGNTYVNWFQQRPGQSPRRLIYQVSIRASGVPDRFSGSGSGTDFALKISRVEAEDVGVYYCMQGTHWPVTFGQGTKVEIK | 10.3 |  |
| antibody 303 (antibody, V domains shown) VH: QVQLVESGGGVVQPGRSLRLSCAASGFNLSSYAMHWVRQASGKGLEWVSLISYDGSIKYYADSVKGRFTVSGDNSKNMLFLQMNSLRADDSALYYCVRGGVSGPNAFDIWGQGTTVTVSS VL: not shown | 9.59 |  |
| antibody 543 (antibody, V domains shown) VH: EVQLVESGGGLVQPGRSLRLSCAASGFTFHDYAMHWVRQAPGKGLEWVSGISWNSGSIGYADSVKGRFTISRDNAKNSLYLQMNSLRAEDTALYYCAKDTFGSSSWYRGDSYYYYGMDVWGQGTTVTVSS VL: QSALTQPASVSGSPGQSITISCTGTSSDVGGYNYVSWYQQHPGKAPKLMIYEVSNRPSGVSNRFSGSKSGNTASLTISGLQAEDEADYYCSSYTSSSTQRYVVFGGGTKLTVL |  | 13.3 |
| antibody 537 (antibody, V domains shown) VH: QVQLQQWGAGLLKPSETLSLTCAVYGGSFSGYYWSWIRQPPGKGLEWIGEINHSGSTNYNPSLKSRVTISVDTSKNQFSLKLSSVTAADTAVYYCARGLYYDMGGGFDYWGQGTLVTVSS VL: not shown |  | 4.42 |
| antibody 522 (antibody, V domains shown) VH: EVQLVESGGGLVQPGGSLRLSCAASGFNFSSYSMNWVRQAPGKGLEWVSYISSSSSTIYYADSVKGRFTISRDNAKNSLYLQMNSLRDEDTAVYYCARGPEWDIVVVQAENWFDPWGQGTLVTVSS VL: SYELTQPPSVSVSPGQTARITCSGDALPKQYVYWYQQKPGQAPVLVIYKDSERPSGIPERFSGSSSGTTVTLTISGVQAEDEADYYCQSADSSGTYRGVFGGGTKLTVL |  | 9.18 |
| antibody 516 (antibody, V domains shown) VH: QVELQQWGAGLLKPSETLSLTCAVYGGSFSGYYWSWIRQPPGKGLEWIGEINHSGSTNYNPSLKSRVTISIDTSKNQFSLKLSSVTAADTAVYYCARGTTVTTFFAPHWYFDLWGRGTLVTVSS VL: QSALTQPASVSGSPGQSITISCTGTSSDVGGYNYVSWYQQHPGKAPKLMIYDVSNRPSGVSNRFSGSKSGNTASLTISGLQAEDEADYYCSSYTSSSTPYVFGTGTKVTVL |  | 3.31 |
| antibody 288 (antibody, V domains shown) VH: EVQLVESGGGLVQPGGSLRLSCAASGFTFSSYDMHWVRQATGKGLEWVSAIGTAGDTYYPGSVKGRFTISRENAKNSLYLQMNSLRAGDTAVYYCARGANRDYDILTGYYSYYYYGMDVWGQGTTVTVSS VL: not shown | 24.3 |  |
| antibody 273 (antibody, V domains shown) VH: QVQLVQSGAEVKKPGASVKVSCKVSGYTLTELSMHWVRQAPGKGLEWMGGFDPEDGETIYAQKFQGRVTMTEDTSTDTAYMELSSLRSEDTAVYYCATAPGYYDSSAPQPINWFDPWGQGTLVTVSS VL: QSALTQPASVSGSPGQSITISCTGTSSDVGSYNLVSWYQQHPGKAPKLMIYEVSKRPSGVSNRFSGSKSGNTASLTISGLQAEDEADYYCCSYAGSSTLVFGGGTKLTVL | 16.9 |  |
| antibody 527 (antibody, V domains shown) VH: QLQLQESGPGLVKPSETLSLTCTVSGGSISSSSYYWGWIRQPPGKGLEWIGSIYYSGSTYYNPSLKSRVTISVDTSKNQFSLKLSSVTAADTAMYYCASHVVVIASSYWCFDLWGRGTLVTVSS VL: QSALTQPASVSGSPGQSITISCTGTSSDVGGYNYVSWYQQHPGKAPKLMIYDVSNRPSGVSNRFSGSKSGNTASLTISGLQAEDEADYYCSSYTSISTWVFGGGTKLTVL |  | 10.4 |
| antibody 536 (antibody, V domains shown) VH: QVQLVESGGGVVQPGRSLRLSCAASGFTFSSYVMHWVRQAPGKGLEWVALISYDGSNKYYADSVKGRFTISRDNSKNTLYLQMNSLRAEDTAVYYCARGGHIRVGRYFDWLISYFDYWGQGTLVTVSS VL: not shown |  | 2.36 |
| antibody 281 (antibody, V domains shown) VH: not shown VL: QSALTQPASVSGSPGQSITISCTGTSSDVGSYNLVSWYQQHPGKAPKLMIYEVSKRPSGVSNRFSGSKSGNTASLTISGLQAEDEADYYCCSYAGSSTHVVFGGGTKLTVL | 24.3 |  |
